Common to all, as to assay: MST
Conditions in all cases: MST: 100 nM AF647 oligo (90 C 2 min, cooled) mixed 1:1 with ligand in PBS, RT, 5 min; EMSA: 1 uM AF546 oligo, UV 254 nm 15 min on ice, 4-16% NativePAGE, 0.5x …
(In EMSA bound probe runs differently from free probe, usually more slowly.)

For data set [1], the target named is native HDL (DGUC-HDL, apoA-I-containing lipoprotein particle) (Homo sapiens) (UniProt P02647).
Data set [2] has the same target. This is another data set of the same source.
The target is the same in data set [3]. This is another data set of the same source.
Data set [4] has the same target. The source holds these as a separate data set.

Among the data in paper PMC9133651, “Elucidation of physico-chemical principles of high-density lipoprotein–small RNA binding interactions” are Kd values, retold here.

Chain of native HDL (DGUC-HDL, apoA-I-containing lipoprotein particle) (Homo sapiens) (P02647 whole entry): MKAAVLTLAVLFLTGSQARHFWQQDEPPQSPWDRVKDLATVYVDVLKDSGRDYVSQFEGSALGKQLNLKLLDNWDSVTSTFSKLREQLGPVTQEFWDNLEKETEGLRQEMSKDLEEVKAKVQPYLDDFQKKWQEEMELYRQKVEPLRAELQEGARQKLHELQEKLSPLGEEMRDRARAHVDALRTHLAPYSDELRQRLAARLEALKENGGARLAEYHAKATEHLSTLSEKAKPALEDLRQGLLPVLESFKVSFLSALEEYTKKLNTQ

“CCGGCUAGCUCAGUCGGUAGAGCAUGAGAC [tDR-LysCTT-30]”: in data set [1], the Kd (as a rule, the constant that tells how readily two partners part at equilibrium) was found to be 3800 nM.

With “GCAUUGGUGGUUCAG [tDR-GlyGCC-5'-tRH-5'tRF-15]”, in data set [2], the Kd is 115 nM.

“GCGCCGCUGGUGUAGUGGUAUCAUGCAAGA [tDR-GlyCCC-30]” registered a Kd in data set [1] of 34000 nM.

Consider “GCAUUGGUGGUUCAGUGGUAGAAUUCUCGC [tDR-GlyGCC-30 (5'-tRH-30)]”, for which the Kd in data set [2] amounted to 16 nM; in data set [1] it was 259 nM; in data set [3], 54 nM; in data set [4], 153 nM.

For the sequence “UGGUAGAAUUCUCGC [tDR-GlyGCC-5'-tRH-3'-tRF-15]”, the Kd in data set [2] came out at 124 nM.

In turn, “CUGCCACGCGGGAGGCCCGGGUUCGAUUCC [tDR-GlyGCC-3'-tRH-30]” gave a Kd in data set [2] of 85 nM. This Kd and that of the sequence before are within 1.5-fold of each other.

With “GCAUUGGUGGUUCAGUGGUAGAAUUCUCGC / GCGAGAAUUCUACCACUGAACCACCAAUGC [dsRNA-tDR-GlyGCC-30]”, the Kd in data set [4] stood at 972 nM.
